Laboratory results reported in paper doi:10.1101/2025.11.01.685996 (bioRxiv, 2025).

Columns and labels:
[1] = target: human C5aR1-Rluc8 (human) (UniProt P21730)
[2] = target: human C5aR1 with C-terminal SmBiT (hC5aR1-SmBiT) (human) (UniProt P21730)
[3] = target: human C3aR with C-terminal SmBiT (hC3aR) (human) (UniProt Q16581)
[4] = target: mouse C5aR2, purified from Sf9 cells (mC5aR2) (not stated | mouse) (UniProt P08173); experiment: cryo-EM structure
[5] = target: mouse C5aR2, purified from Sf9 cells (mC5aR2) (not stated | mouse) (UniProt P08173); experiment: SEC
[6] = target: T1, mouse C5aR1, purified (mC5aR1) for cryo-EM and HDX-MS (mouse, UniProt P30993 1-351); experiment: cryo-EM structure
T1 sequence: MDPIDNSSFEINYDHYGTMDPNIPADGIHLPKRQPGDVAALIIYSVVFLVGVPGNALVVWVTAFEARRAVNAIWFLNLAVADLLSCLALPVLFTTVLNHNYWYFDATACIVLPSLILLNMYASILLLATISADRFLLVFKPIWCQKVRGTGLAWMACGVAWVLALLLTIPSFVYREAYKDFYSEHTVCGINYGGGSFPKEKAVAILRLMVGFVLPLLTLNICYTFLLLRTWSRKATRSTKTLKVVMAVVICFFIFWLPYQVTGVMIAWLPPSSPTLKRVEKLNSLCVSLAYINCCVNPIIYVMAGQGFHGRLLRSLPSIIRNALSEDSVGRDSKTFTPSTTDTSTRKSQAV

Sequence of human C3aR with C-terminal SmBiT (hC3aR) (human) (Q16581 whole entry): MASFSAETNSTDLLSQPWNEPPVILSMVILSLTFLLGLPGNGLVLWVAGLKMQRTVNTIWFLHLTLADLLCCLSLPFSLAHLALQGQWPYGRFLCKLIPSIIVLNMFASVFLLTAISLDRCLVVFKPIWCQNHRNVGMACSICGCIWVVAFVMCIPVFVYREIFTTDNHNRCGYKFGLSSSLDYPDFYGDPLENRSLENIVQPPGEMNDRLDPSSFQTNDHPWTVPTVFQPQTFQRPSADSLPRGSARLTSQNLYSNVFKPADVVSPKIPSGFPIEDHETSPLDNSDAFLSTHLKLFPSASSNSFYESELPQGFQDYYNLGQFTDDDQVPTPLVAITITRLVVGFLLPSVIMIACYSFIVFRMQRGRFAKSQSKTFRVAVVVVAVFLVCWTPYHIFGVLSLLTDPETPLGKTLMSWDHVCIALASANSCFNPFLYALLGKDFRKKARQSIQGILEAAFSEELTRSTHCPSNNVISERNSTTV
Sequence of human C5aR1 with C-terminal SmBiT (hC5aR1-SmBiT) (human) (P21730 whole entry): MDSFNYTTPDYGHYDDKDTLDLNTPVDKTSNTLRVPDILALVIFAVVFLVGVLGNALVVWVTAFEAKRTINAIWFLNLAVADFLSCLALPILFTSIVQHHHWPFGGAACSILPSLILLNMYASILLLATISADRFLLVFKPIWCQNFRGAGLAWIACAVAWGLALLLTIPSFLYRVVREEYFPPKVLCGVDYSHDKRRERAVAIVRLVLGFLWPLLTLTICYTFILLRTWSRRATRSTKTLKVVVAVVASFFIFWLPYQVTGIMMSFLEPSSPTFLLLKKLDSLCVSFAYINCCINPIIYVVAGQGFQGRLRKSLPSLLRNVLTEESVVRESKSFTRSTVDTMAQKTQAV
Sequence of human C5aR1-Rluc8 (human) (P21730 whole entry): as above

How did the efficacy at C5aR1 relative to C5a; read-out not given [1] turn out when [Tyr8]BM2020-8 peptide was run?
The efficacy at C5aR1 relative to C5a; read-out not given was 41%.

Which activation of C5aR1 (Figure S10D and Table S1) [2] does the source give for “R8Y, [Tyr1,Tyr8]BM2020-8, C5aR2-selective peptide agonist” here?
The activation of C5aR1 (Figure S10D and Table S1) was over 10 µM.

What about the activation of C3aR (Figure S10D and Table S1) [3] of the same molecule?
The activation of C3aR (Figure S10D and Table S1) was over 10 µM.

“mouse C5aR2, purified from Sf9 cells (mC5aR2) (from UniProt P08173 2-23) (receptor)” was tested. Which stoichiometry N [4] did it give?
Its stoichiometry N is 2.

And the stoichiometry N [5]?
Its stoichiometry N is 2.

B1: mouse complement anaphylatoxin C5a, recombinant (mC5a) (ligand)
chain: NLHLLRQKIEEQAAKYKHSVPKKCCYDGARVNFYETCEERVARVTIGPLCIRAFNECCTIANKIRKESPHKPVQLGR
Does B1 bind [6]?
Result: binds
